Experimental data reported in article PMC9287321 (Scientific Reports, 2022).

Target: T1, AFP_(158–166) peptide complexed with HLA-A*02:01 (Homo sapiens, HLA-A*02:01)
T1 construct: HLA-A*02:01 heavy chain, soluble recombinant; β2-microglobulin, recombinant; alpha-fetoprotein (AFP) peptide, residues 158–166; also called AFP/HLA-A*02; AFP/HLA-A*02 complex; copies: + +
Assay: SPR; Biacore T200, CM5 chip; AFP/HLA-A*02 amine coupled (100–200 RU); kinetic titration, five injections of increasing TCRm, 100 μL/min, 25 °C; 1:1 binding model; mean of three experiments
Conditions: both partners purified

B1: anti-AFP TCRm antibody, Fab fragment (Fab, V domains shown)
VH: EVQLVQSGAEVKKPGESLTISCKASGYSFPNYWITWVRQMSGGGLEWMGRIDPGDSYTTYNPSFQGHVTISIDKSTNTAYLHWNSLKASDTAMYYCARYYVSLVDIWGQGTLVTVSS
VL: QSVLTQPASVSGSPGQSITISCTGTSSDVGGYNYVSWYQQHPGKAPKLMIYDVNNRPSEVSNRFSGSKSGNTASLTISGLQAEDEADYYCSSYTTGSRAVFGGGTKLTVL
notes: Fab cut by papain from human IgG1; also called TCR mimic antibody; TCRm Fab fragment
B1 gave a Kd of 7 nM.
